Columns and labels:
[1] = biological target: D80 scFv-Fc-CD28-gp41 expressed on 293T cells (human; HIV-1) [IgG part: P01857]; assay: cell-based or functional assay
[2] = biological target: F43 scFv-Fc-CD28-gp41 expressed on 293T cells (human; HIV-1) [IgG part: P01857]; assay: cell-based or functional assay
[3] = biological target: F70 scFv-Fc-CD28-gp41 expressed on 293T cells (human; HIV-1) [IgG part: P01857]; assay: cell-based or functional assay
[4] = biological target: 11A scFv-Fc-CD28-gp41 expressed on 293T cells (human; HIV-1) [IgG part: P01857]; assay: flow cytometry, 293T-11A cells stained with APC-conjugated MuG6
[5] = biological target: D80 scFv-Fc-CD28-gp41 expressed on 293T cells (human; HIV-1) [IgG part: P01857]; assay: flow cytometry, 293T-D80 cells stained with APC-conjugated MuG6
[6] = biological target: F43 scFv-Fc-CD28-gp41 expressed on 293T cells (human; HIV-1) [IgG part: P01857]; assay: flow cytometry, 293T-F43 cells stained with APC-conjugated MuG6
[7] = biological target: F70 scFv-Fc-CD28-gp41 expressed on 293T cells (human; HIV-1) [IgG part: P01857]; assay: flow cytometry, 293T-F70 cells stained with APC-conjugated MuG6
[8] = biological target: F43 scFv-Fc (human) [IgG part: P01857]; assay: Octet-Red biolayer interferometry, SA sensor tips, 2:1 model; reference pair HuG6.3 and D80 scFv-Fc

Binder	CDC, percent of target cells killed (LDH release, rabbit serum) (% of target cells killed) [1]	CDC, percent of target cells killed (LDH release, rabbit serum) (% of target cells killed) [2]	CDC, percent of target cells killed (LDH release, rabbit serum) (% of target cells killed) [3]	% of cells in Q3 (ZsGreen-, G6-id+) [4] [%]	% of cells in Q2 (ZsGreen+, G6-id+) [5] [%]	% of cells in Q3 (ZsGreen-, G6-id+) [5] [%]	% of cells in Q2 (ZsGreen+, G6-id+) [6] [%]	% of cells in Q3 (ZsGreen-, G6-id+) [6] [%]	% of cells in Q2 (ZsGreen+, G6-id+) [7] [%]	% of cells in Q3 (ZsGreen-, G6-id+) [7] [%]	fold increase in binding affinity compared to D80 scFv-Fc [8] [fold]	fold slower Koff compared to D80 scFv-Fc [8] [fold]	fold slower Kon compared to D80 scFv-Fc [8] [fold]
MuG6 antibody (format in the CDC and ADCC assays not stated) (antibody, V domains shown, APC-conjugated in the flow cytometry of FIG.11C) VH: QVQLQQSGTVLARPGASVKMSCKASGYTFTSYWMHWVKQRPGQGLEWIGAVSPGNSDTSYNQKFKGKATLTAVTSTSTAYMEFSSLTNEDSAVYYCTRSRYGNNALDYWGQGTTVTVSS VL: DIELTQSPSSMSVSLGDTVNITCRASQGISSNIVWLQQKPGKSFKGLIYHGTNLEDGVPSRFSGSGSGADYSLTISSLESEDFADYYCVQYSQFPPTFGSGTKLELK	20	20	20	0.097	43.3	5.28	41.3	9.11	44	6.15	–	–	–
HuG6.3 (format not stated, Octet-Red assay) (antibody, V domains shown) VH: QVQLVQSGAEVVKPGASVKVSCKASGYTFTSYWMHWVKQAPGQGLEWIGAVSPGNSDTSYNEKFKGKATLTVDKSASTAYMELSSLRSEDTAVYYCTRSRYGNNALDYWGQGTLVTVS VL: DIQLTQSPSSLSASVGDRVTITCRASQGISSNIVWLQQKPGKAPKGLIYHGTNLESGVPSRFSGSGSGTDYTLTISSLEPEDFATYYCVQYSQFPPTFGQGTKLEIK	–	–	–	–	–	–	–	–	–	–	50	600	3.5
